From patent US20080098490A1
One block for each substance: values may come before it.

Legend:
[1] = molecular target: IL-8 receptors on human neutrophils; assay: 125I-IL-8 binding to human neutrophils, no antibody
[2] = molecular target: TNF-α receptors on U937 cells; assay: 125I-TNF-α binding to U937 cells, no antibody
[3] = molecular target: EGFR expressed on A431 cells or SW948 cells (human) (UniProt P00533); assay: inhibition of [125I]EGF binding to A431 cells (receptor binding assay, % specific bound); blocked ligand: EGF

background binding in the absence of antibody [1]: 2660 cpm
Substance: human IL-8 (from UniProt P10145 28-99) (ligand)

background binding in the absence of antibody [2]: 4010 cpm
Substance: human tumor necrosis factor-α (from UniProt P01375 77-233) (ligand)

IC50 (read off the curve) [3]: 20 nM
Substance: mouse anti-human EGFR antibody 225 (Calbiochem)
